{
  "source": "patent US20240321457A1",
  "about": "“SYSTEMS FOR AND METHODS OF TREATMENT SELECTION” (THE REGENTS OF THE UNIVERSITY OF CALIFORNIA, priority 2020, published 2024)",
  "molecular_target": "UBE2N (human) (UniProt P61088)",
  "sequence (P61088 whole entry, canonical isoform)": "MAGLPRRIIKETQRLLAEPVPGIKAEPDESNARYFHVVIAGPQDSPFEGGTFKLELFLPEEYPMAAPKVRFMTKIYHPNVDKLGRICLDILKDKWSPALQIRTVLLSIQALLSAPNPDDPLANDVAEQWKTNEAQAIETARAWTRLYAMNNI",
  "test": "AP-MS, PPI score from compPASS and SAINTexpress, MDA-MB-231 cells",
  "data": [
    {"substance": "BRCA1 isoform lacking exon 11 (from UniProt P38398 1-721) (enzyme)", "values": [
      {"measurement": "PPI score", "result": "< 0.6"}
    ]}
  ]
}
